# In patent US7842469B2, “Bioluminescence resonance energy transfer (BRET) systems and methods of use thereof” (Stanford University, priority 2005, dated 2010):
# Legend:
# [1] = Luciferase activity of purified RLuc mutants (light output integrated over 10 s, luminometer); type: biochemical; settings: relative to native enzyme; for Activity (relative to RLuc) bc: benzyl-coelenterazine; for Activity (relative to RLuc) bdc: bisdeoxycoelenterazine; for Activity (relative to RLuc) cp: coelenterazine-cp; for Activity (relative to RLuc) n: coelenterazine-n; for Activity (relative to RLuc) native: native coelenterazine
# Excerpt: Luminometer Calibration: Light measurements were made using a Turner 20/20 and later a Turner 20/20n luminometer (Turner Designs, Sunnyvale, Calif.). The luminometers were calibrated to absolute units (photons/s) using the luminol light standard performed in dimethyl sulfoxide (DMSO). No corrections were applied for the spectral sensitivity of the luminometer, as the spectral peak of luminol chemiluminescence in DMSO (486 nm) is close to the spectral peak of Renilla Luciferase bioluminescence (482 nm).
# Characterization of Renilla Luciferase Mutants: Luciferase activity was measured by adding 1 μl of sample (diluted as necessary in EB containing 1% HSA) to 100 μl room temperature 100 mM sodium phosphate buffer (pH 7), manually adding 1 μl of 0.5 μg/μl coelenterazine or analog, manually mixing, and reading for 10 s in a luminometer. The time between the addition of the luciferin and the start of measurement was approximately 4 s.
# [2] = Serum stability in mouse serum at 37° C.; type: in vitro ADME; settings: mouse serum, 37° C., mono-exponential fit
# Description: (§1) Serum stability measurements were done by mixing 0.5 μl dilute Luciferase with either 20 μl mouse serum or 50 μl rat serum (Equitech-Bio, Kerrville, Tex.) placing the sample in a 37° C. incubator, and removing aliquots for activity testing. To calculate serum half-lives, mono-exponential decay curves were fit to the serum stability data using a Nelder/Mead Simplex non-linear least squares minimization algorithm provided by the Octave numerical programming language. Emission spectra at ambient temperature were measured using a Triax 320 (Horiba Jobin Yvon, Edison, N.J.), which incorporates an optical grating device with a liquid N2 cooled CCD detector.
# [3] = Serum stability in rat serum at 37° C.; type: in vitro ADME; settings: mono-exponential fit
# Description: as §1
# [4] = Bioluminescence emission spectra; type: physicochemical; settings: emission spectrum with native coelenterazine
# Description: as §1
Molecule,Activity (relative to RLuc) bc [1],Activity (relative to RLuc) bdc [1],Activity (relative to RLuc) cp [1],Activity (relative to RLuc) n [1],Activity (relative to RLuc) native [1],Serum τ1/2 (h) mouse [2],Serum τ1/2 (h) rat [3],Wavelength (nm) mean [4],Wavelength (nm) peak [4]
C124A/M191L: RLuc mutant C124A/M191L (protein) MASKVYDPEQRKRMITGPQWWARCKQMNVLDSFINYYDSEKHAENAVIFLHGNAASSYLWRHVVPHIEPVARCIIPDLIGMGKSGKSGNGSYRLLDHYKYLTAWFELLNLPKKIIFVGHDWGAALAFHYSYEHQDKIKAIVHAESVVDVIESWDEWPDIEEDIALIKSEEGEKMVLENNFFVETMLPSKILRKLEPEEFAAYLEPFKEKGEVRRPTLSWPREIPLVKGGKPDVVQIVRNYNAYLRASDDLPKMFIESDPGFFSNAIVEGAKKFPNTEFVKVKGLHFSQEDAPDEMGKYIKSFVERVLKNEQ,0.99,1.2,0.97,1.0,1.1,6.5 h,5.1 h,496 nm,480 nm
C124A/F199M: RLuc mutant C124A/F199M (protein) MASKVYDPEQRKRMITGPQWWARCKQMNVLDSFINYYDSEKHAENAVIFLHGNAASSYLWRHVVPHIEPVARCIIPDLIGMGKSGKSGNGSYRLLDHYKYLTAWFELLNLPKKIIFVGHDWGAALAFHYSYEHQDKIKAIVHAESVVDVIESWDEWPDIEEDIALIKSEEGEKMVLENNFFVETMLPSKIMRKLEPEEMAAYLEPFKEKGEVRRPTLSWPREIPLVKGGKPDVVQIVRNYNAYLRASDDLPKMFIESDPGFFSNAIVEGAKKFPNTEFVKVKGLHFSQEDAPDEMGKYIKSFVERVLKNEQ,0.44,0.46,0.53,0.49,0.58,6.7 h,6.0 h,495 nm,480 nm
C124A/E195S/P196D: RLuc mutant C124A/E195S/P196D (protein) MASKVYDPEQRKRMITGPQWWARCKQMNVLDSFINYYDSEKHAENAVIFLHGNAASSYLWRHVVPHIEPVARCIIPDLIGMGKSGKSGNGSYRLLDHYKYLTAWFELLNLPKKIIFVGHDWGAALAFHYSYEHQDKIKAIVHAESVVDVIESWDEWPDIEEDIALIKSEEGEKMVLENNFFVETMLPSKIMRKLSDEEFAAYLEPFKEKGEVRRPTLSWPREIPLVKGGKPDVVQIVRNYNAYLRASDDLPKMFIESDPGFFSNAIVEGAKKFPNTEFVKVKGLHFSQEDAPDEMGKYIKSFVERVLKNEQ,0.10,0.15,0.12,0.10,0.12,1.0 h,0.7 h,498 nm,482 nm
